# Measured values published in patent US6949506B2, “Relaxin-like factor and methods and uses thereof” (BAS Medical, Inc., priority 1995, dated 2005).
# Positions of bridges follow the written chain, without caps; N, C: chain ends. Chains are numbered I, II in the order given. No end group written: not given here.
# Legend:
# [1] = test system: fibronectin expression, rheumatoid synovial fibroblasts; test: Inhibition of fibronectin expression by synovial fibroblasts; assay type: cell-based, human; conditions: 100 ng/ml; TGF-β-treated fibroblasts
# From the text: The method for detecting and measuring collagen formation in the presence of relaxin described in Unemori and Amento, 1990, J. Biol. Chem. 265:10681-685 has been modified as follows to determine the ability of RLF, in vitro, to modulate the expression of fibronectin.
# Materials And Methods. Specifically, using the method described in section 6.7.1., the fibronectin band was identified by size (220 kDa), bacterial collagenase-resistance, and positive staining using commercially available polyclonal anti-fibronectin antibody (Promega). The fibronectin band was scanned densitometrically to estimate levels of expression.
# uterine relaxin receptor = target: T1, uterine relaxin receptor (Mus musculus, UniProt Q6R6I7); test: Relaxin-binding assay, mouse uterus crude membranes, porcine relaxin tracer
# T1 construct: brain, and uterus (of estrogen primed mice); from tissue; host or cells: uterus of estrogen-primed mice, crude membranes
# T1 sequence (Q6R6I7 1-758): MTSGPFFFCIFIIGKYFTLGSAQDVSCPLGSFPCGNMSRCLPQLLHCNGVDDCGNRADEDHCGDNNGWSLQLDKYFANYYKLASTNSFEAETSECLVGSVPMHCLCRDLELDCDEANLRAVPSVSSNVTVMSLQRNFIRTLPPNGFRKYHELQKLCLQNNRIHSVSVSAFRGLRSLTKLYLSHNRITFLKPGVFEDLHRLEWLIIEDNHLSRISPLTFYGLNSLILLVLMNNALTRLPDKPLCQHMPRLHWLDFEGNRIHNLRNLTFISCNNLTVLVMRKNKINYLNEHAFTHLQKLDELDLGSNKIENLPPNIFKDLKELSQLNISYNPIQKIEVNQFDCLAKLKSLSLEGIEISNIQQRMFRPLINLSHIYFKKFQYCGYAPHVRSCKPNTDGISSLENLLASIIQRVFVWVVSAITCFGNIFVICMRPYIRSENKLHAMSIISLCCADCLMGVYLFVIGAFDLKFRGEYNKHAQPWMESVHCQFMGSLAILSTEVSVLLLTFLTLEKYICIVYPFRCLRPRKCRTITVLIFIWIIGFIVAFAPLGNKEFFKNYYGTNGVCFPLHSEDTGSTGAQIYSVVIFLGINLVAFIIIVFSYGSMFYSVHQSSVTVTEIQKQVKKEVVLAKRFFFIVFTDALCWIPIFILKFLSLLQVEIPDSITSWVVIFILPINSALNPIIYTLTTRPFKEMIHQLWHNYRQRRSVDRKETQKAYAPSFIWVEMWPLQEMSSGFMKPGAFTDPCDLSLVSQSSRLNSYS
# Protocol: Relaxin-binding assays were performed as described in Yang, et al., 1992, Endocrinology 130:179-185 and Büllesbach, et al., 1994, Endocrine. 2:1115-1120, using crude membrane preparations of mouse tissue. Mouse brains of 2 mice were collected into 15 ml of chilled buffer (25 mM HEPES, 0.14 M NaCl, 5.7 mM KCI, 0.2 mM phenylmethylsulfonyl-fluoride, and 80 mg/ml soybean trypsin inhibitor, pH 7.5) supplemented with sucrose (0.25 M, final concentration). The tissue was homogenized on ice for 10 s with a Polytron homogenizer (Brinlmann, Westbury, N.Y.) at setting 5. The homogenate was centrifuged at 700 rpm for 10 min at 4° C. and the supernatants were recentrifuged at 10,000×g for 1 h. The pellet was resuspended in 15 ml of ice cold binding buffer, 25 mM HEPES, 0.14 M NaCl, 5.7 mM KCI, 0.2 mM phenylmethylsulfonylfluoride, and 80 mg/ml soybean trypsin inhibitor, pH 7.5, supplemented with 1% bovine serum albumin, and centrifuged for 1 h at 10,000×g. […] The supernatant was discarded, the tip of the vial cut and counted in a γ-counter. Nonspecific binding was determined in the presence of 2 μl/ml of unlabeled competitor (0.33 μM). […]
# Tissue specificity was determined using crude membrane preparations of leg muscles, kidneys, liver. brain, and uterus (of estrogen primed mice). […] Binding was based on protein concentration determined by Lowry.
# insulin receptor = target: T2, insulin receptor (Homo sapiens, UniProt P06213); test: Insulin-receptor binding assay on crude membrane preparations of term placenta; conditions: term placenta crude membranes; 125I-iodo-TyrA14 porcine insulin tracer
# T2 construct: crude membrane preparations of term placenta; from tissue; host or cells: term placenta, crude membranes
# Protocol: Insulin-receptor binding assays were performed on crude membrane preparations of term placenta, as described in Hock and Hollenberg, 1980, J. Biol. Chem. 255:10731-10736, using ^125I-iodo-Tyr^A14 porcine insulin as tracer according to the method of Linde, et al., 1986, J. Chromatogr. 369:327-339.
# The assays were performed in HMS-buffer (25 mM HEPES, 104 mM NaCl, 5 mM MgCl2, 0.2% bovine serum albumin; pH 7.4) in a total volume of 100 μl. Labeled insulin (50,000 cpm/assay, 150 pM) and variable amounts of insulin were incubated with crude membranes for 1 h at room temperature. Thereafter 1 ml of buffer was added, the membranes collected by centrifugation in a microcentrifuge at 14,000 rpm for 5 min, the supernatant discarded, and the tip of the Eppendorf vial cut off and counted in a γ-counter (Minigamma, LKB, Sweden). To determine nonspecific binding unlabeled insulin was used at a concentration of 2 μl/ml (0.33 μM) and nonspecific binding was usually below 10% of the total binding.
substance,measurement,setting,value
"RLF: synthesized human relaxin-like factor, two-chain peptide (A and B chain, SEQ ID NOS:3 and 4), three disulfide links (alpha AAATNPARYCCLSGCTQQDLLTLCPY; beta PTPEMREKLCGHHFVRALVRVCGGPRWSTEA; disulfide I:11-II:10; also: two further disulfide bonds, places not given here)",decrease of TGF-β-stimulated fibronectin expression,[1],17%
same,recognition by the uterine relaxin receptor,uterine relaxin receptor,barely recognizes
same,50% Binding,uterine relaxin receptor; tracer pRLX,10000 ng
same,binding to the insulin receptor,insulin receptor,does not bind with any significant degree
